# Assay results as given in IntAct's records for PubMed 17805301.
# B1: CREB-regulated transcription coactivator 2 (Mus musculus), Q3U182 (parent)
# chain: MATSGANGPGSATASASNPRKFSEKIALQKQRQAEETAAFEEVMMDIGSTRLQAQKLRLAYTRSSHYGGSLPNVNQIGCGLAEFQSPLHSPLDSSRSTRHHGLVERVQRDARRMVSPLRRYPRHIDSSPYSPAYLSPPPESGWRRMMPWGNLPAEKGQLFRLPSALNRTSSDSALHTSVMNPNPQDTYPGPTPPSVLPSRRGGGFLDGEMDAKVPAIEENVVDDKHLLKPWDAKKLSSSSSRPRSCEVPGINIFPSPDQPANVPVLPPAMNTGGSLPDLTNLHFPPPLPTPLDPEETVYPSLSGGNSTTNLTHTMTHLGISGGLGLGPSYDVPGLHSPLSHPSLQSSLSNPNLQASLSSPQPQLQGSHSHPSLPASSLAHHALPTTSLGHPSLSAPALSSSSSSSSTSSPVLSAPPYPASTPGASPRHRRVPLSPLSLPAGPADARRSQQQLPKQFSPTMSPTLSSITQGVPLDTSKLPTDQRLPPYPYSPPSLVIPTHPPTPKSLQQLPSQACLVQPSGGQPPGRQPHYGALYPPGSSGHGQQPYHRPINDFSLGNLEQFNMESPSTSLVLDPPAFSEGPGFLGSEGSMSGPQDPHVLNHQNLTHCSRHGSGPNIILTGDSSPGFSKEIAAALAGVPGFEVSASGLELGLGLEDELRMEPLGLEGLTMLSDPCALLPDPAVEDSFRSDRLQ
# Variants of: B1
# Conditions: with cop1_mouse Cop1, Q9R1A8
# Sequence of cop1_mouse Cop1, Q9R1A8 (Q9R1A8 whole entry): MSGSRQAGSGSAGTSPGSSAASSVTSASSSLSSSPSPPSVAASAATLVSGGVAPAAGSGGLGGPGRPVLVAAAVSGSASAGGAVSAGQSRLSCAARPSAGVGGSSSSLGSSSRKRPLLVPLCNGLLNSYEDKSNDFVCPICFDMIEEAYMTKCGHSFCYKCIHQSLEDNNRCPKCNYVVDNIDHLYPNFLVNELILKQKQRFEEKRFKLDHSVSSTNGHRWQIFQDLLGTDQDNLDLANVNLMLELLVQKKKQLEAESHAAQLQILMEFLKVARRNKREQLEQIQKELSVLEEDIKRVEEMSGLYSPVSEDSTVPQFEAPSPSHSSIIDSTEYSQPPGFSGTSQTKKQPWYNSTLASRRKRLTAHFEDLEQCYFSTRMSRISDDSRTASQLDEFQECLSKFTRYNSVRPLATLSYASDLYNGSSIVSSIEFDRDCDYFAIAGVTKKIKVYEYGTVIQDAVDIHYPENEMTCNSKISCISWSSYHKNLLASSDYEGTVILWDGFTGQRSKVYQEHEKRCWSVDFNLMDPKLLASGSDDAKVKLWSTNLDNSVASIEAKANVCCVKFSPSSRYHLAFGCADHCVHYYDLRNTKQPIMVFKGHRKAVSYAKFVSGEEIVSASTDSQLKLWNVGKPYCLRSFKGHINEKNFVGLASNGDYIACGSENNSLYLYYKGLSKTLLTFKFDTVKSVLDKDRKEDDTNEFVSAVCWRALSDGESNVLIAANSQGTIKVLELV
row,effect of a mutation on the interaction,Variant
1,disrupting interaction strength,V214A;P215A
